Measured values as given in paper PMC8428117, “Y chromosomal noncoding RNAs regulate autosomal gene expression via piRNAs in mouse testis”.

B1: Sod oligo (FJ541118) (ssRNA)
RNA: GAAGCAGAUGAGUAUAUG
B2: spot A4 oligo (FJ541077) (ssRNA)
RNA: UCAUUGGACAUAAACUGAAUUUUCCA

Target: MIWI (mouse homologue of PIWI) (UniProt Q9JMB7 1-862)
Assay: EMSA; shift abolished by MIWI antibody, not by Argonaute 3 antibody; competed by cold piR1; 20 mM HEPES (pH not stated), 3 mM MgCl2, 40 mM KCl, 5% glycerol, 2 mM DTT, 4 U RNase inhibitor; 5 ug MIWI in 25 ul; on ice, 30 min with probe (competitor/antibody 1 h before); 5% native PAGE
Conditions: protein: recombinant; tags: FLAG; label: 32P end label

MIWI (mouse homologue of PIWI), sequence (Q9JMB7 whole entry): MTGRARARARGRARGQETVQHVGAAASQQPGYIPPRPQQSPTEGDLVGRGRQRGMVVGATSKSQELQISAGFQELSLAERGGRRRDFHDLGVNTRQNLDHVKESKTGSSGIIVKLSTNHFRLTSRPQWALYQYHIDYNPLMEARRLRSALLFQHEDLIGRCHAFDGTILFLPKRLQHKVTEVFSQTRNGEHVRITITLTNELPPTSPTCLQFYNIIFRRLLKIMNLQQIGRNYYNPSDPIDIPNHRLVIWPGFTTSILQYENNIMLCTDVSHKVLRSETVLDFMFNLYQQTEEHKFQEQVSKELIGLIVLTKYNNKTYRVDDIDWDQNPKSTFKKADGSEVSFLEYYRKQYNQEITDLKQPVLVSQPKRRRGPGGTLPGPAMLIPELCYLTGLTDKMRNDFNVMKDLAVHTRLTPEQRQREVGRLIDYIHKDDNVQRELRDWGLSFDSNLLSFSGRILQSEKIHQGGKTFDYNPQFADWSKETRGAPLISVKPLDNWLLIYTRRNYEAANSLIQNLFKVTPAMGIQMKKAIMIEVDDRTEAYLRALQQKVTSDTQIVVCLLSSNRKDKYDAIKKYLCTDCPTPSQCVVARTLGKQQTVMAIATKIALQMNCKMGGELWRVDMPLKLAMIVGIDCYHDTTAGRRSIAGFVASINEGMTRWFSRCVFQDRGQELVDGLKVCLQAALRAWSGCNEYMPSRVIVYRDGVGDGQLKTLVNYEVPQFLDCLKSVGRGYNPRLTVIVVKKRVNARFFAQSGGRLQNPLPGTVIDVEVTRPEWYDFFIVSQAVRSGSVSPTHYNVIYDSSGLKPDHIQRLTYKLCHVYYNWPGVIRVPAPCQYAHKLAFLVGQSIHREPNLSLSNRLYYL

| Binder | binding result |
| --- | --- |
| B1 | binds |
| B2 | binds |
